Data published in patent publication US20080131373A1 (VAN ANDEL RESEARCH INSTITUTE, published 2008).

Tests used:
[1] = molecular target: human epidermal growth factor receptor (EGFR) on the surface of A431 cells (human, UniProt P00533 25-1210); test: cell-based or functional assay
[2] = molecular target: T1, full length EGFR protein from A431 cell lysate (affinity purified, or native in the lysate) (human, UniProt P00533 25-1210); test: non-competitive ELISA on immobilized EGFR at 2 and 5 µg/ml coating
T1 construct: mature; 'mature' is chosen as the nearest form; also called intact EGFR protein; native EGFR
Description: The hyperbolic curves were plotted by Graphpad Prism (FIG. 7). […] The affinity was calculated as an association constant (Kaff) as follows: […]
The affinity of the Fab was calculated by non-competitive ELISA as described elsewhere (Raghava G P, et al. J Immunoassay 15:115-28 (1994)). The EGFR proteins were immobilized to an ELISA plate at two different concentrations: 2 μg/ml and 5 μg/ml. After the plate was blocked by 5% milk-PBS, the serially diluted Fab was added to each well. The concentration of Fab and the absorbance optical at 450 nm were plotted in two hyperbolic curves and each Kd was calculated by Graphpad Prism Demo Version.

Binder | IC50 of A431 cell proliferation [1] [nM] | Ka [2] [M⁻¹] | Kd [2] [nM]
Fab-paclitaxel conjugate (anti-EGFR Fab conjugated to paclitaxel) (Fab, V domains shown, paclitaxel conjugated to the Fab; chain, site and linker not stated) VH: EVQLVESGGGLVQPGRSLRLSCAASGFTFDDYAMHWVRQAPGKGLEWVAVIWYDGSNKYYADSVKGRFTISRDNSKNTLYLQMNSLRAEDTAVYYCARTLYSNIDYWGQGTLVTVSS VL: ALTQPPSVSVAPGKTARITCGGNNIGSKSVHWYQQKPGQAPVLVIYYDSDRPSGIPERFSGSNSGNTATLTISRVEAGDEADYYCQVWDSSSDHPVFGGGTKLTVL | 0.02 | – | –
anti-EGFR Fab fragment (produced by E. coli deposited as ATCC PTA-7830) (Fab, V domains shown, Human Fab from a naive phage display library (phagemid pComb3X), expressed in E. coli Top 10 F' and purified from the periplasm; also called the Fab of the present invention) VH: EVQLVESGGGLVQPGRSLRLSCAASGFTFDDYAMHWVRQAPGKGLEWVAVIWYDGSNKYYADSVKGRFTISRDNSKNTLYLQMNSLRAEDTAVYYCARTLYSNIDYWGQGTLVTVSS VL: ALTQPPSVSVAPGKTARITCGGNNIGSKSVHWYQQKPGQAPVLVIYYDSDRPSGIPERFSGSNSGNTATLTISRVEAGDEADYYCQVWDSSSDHPVFGGGTKLTVL | – | 3.25e+07 | 30.7
